Experimental findings from paper PMC8523171, “The cooperative binding of TDP-43 to GU-rich RNA repeats antagonizes TDP-43 aggregation” are described below.

Data set [1] addresses TDP-43 RRM1-2 (human) (UniProt Q13148). As to the kind of experiment: ITC. As to conditions: apparent, one set of sites model, ITC: 15 mM phosphate pH 6.8, 25 mM KCl, 1 mM TCEP, 25 C, NMR: same buffer, 298 K (SEA-HSQC 310 K), EMSA: 20 mM HEPES pH 7.6, 25 mM KCl, 2 mM MgCl2 …. A general note: Mobility shift assays separate free from complexed probe on a gel.
Data set [2] concerns the target TDP-43 RRM2 (human, UniProt Q13148 176-277). As to the kind of experiment: ITC; two protein copies; Kd values not in material; ITC: 15 mM phosphate pH 6.8, 25 mM KCl, 1 mM TCEP, 25 C; NMR: same buffer, 298 K (SEA-HSQC 310 K); EMSA: 20 mM HEPES pH 7.6, 25 mM KCl, 1 mM TCEP, 2 mM MgCl2, room temperature, 10 pmol DNA in 10 uL. The conditions noted are these: protein: recombinant; tags: His6 cleaved by TEV; chain copies: 2; single strand.

The target in data set [3] is T1, TDP-43 RRM1 (human, UniProt Q13148 101-192). As to the kind of experiment: ITC; Kd1; ITC: 15 mM phosphate pH 6.8, 25 mM KCl, 1 mM TCEP, 25 C; NMR: same buffer, 298 K (SEA-HSQC 310 K); EMSA: 20 mM HEPES pH 7.6, 25 mM KCl, 1 mM TCEP, 2 mM MgCl2, room temperature, 10 pmol DNA in 10 uL. As to conditions: protein: recombinant; tags: His6 cleaved by TEV; chain copies: 2; single strand. Background: ITC needs no label: the signal is the heat of the interaction.
T1 sequence (Q13148 101-192): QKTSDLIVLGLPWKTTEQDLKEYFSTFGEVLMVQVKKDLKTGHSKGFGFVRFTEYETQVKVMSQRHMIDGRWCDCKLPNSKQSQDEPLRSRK

For data set [4], the target named is T2, TDP-43 RRM1-2 (human, UniProt Q13148 101-277). The data set can be described thus: ITC; ITC: 15 mM phosphate pH 6.8, 25 mM KCl, 1 mM TCEP, 25 C; NMR: same buffer, 298 K (SEA-HSQC 310 K); EMSA: 20 mM HEPES pH 7.6, 25 mM KCl, 1 mM TCEP, 2 mM MgCl2, room temperature, 10 pmol DNA in 10 uL. The conditions noted are these: protein: recombinant; tags: His6 cleaved by TEV; residual N-terminal GSH (180 aa); single strand.
T2 sequence (Q13148 101-277): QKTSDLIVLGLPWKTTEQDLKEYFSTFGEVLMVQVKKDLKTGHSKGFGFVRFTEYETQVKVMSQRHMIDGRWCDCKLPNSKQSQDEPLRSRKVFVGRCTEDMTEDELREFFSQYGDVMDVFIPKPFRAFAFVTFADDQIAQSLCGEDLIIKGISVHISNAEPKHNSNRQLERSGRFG

In data set [5] the target is T2, TDP-43 RRM1-2. The data set can be described thus: NMR and SAXS; two RRM1-2 bound; ITC: 15 mM phosphate pH 6.8, 25 mM KCl, 1 mM TCEP, 25 C; NMR: same buffer, 298 K (SEA-HSQC 310 K); EMSA: 20 mM HEPES pH 7.6, 25 mM KCl, 1 mM TCEP, 2 mM MgCl2, room temperature, 10 pmol DNA in 10 uL. As to conditions: protein: recombinant; tags: His6 cleaved by TEV; residual N-terminal GSH (180 aa); single strand.

For data set [6], the target named is T2, TDP-43 RRM1-2. The data set can be described thus: NMR and SAXS; same dimer interface as with (GU)12; ITC: 15 mM phosphate pH 6.8, 25 mM KCl, 1 mM TCEP, 25 C; NMR: same buffer, 298 K (SEA-HSQC 310 K); EMSA: 20 mM HEPES pH 7.6, 25 mM KCl, 1 mM TCEP, 2 mM MgCl2, room temperature, 10 pmol DNA in 10 uL. The conditions noted are these: protein: recombinant; tags: His6 cleaved by TEV; residual N-terminal GSH (180 aa); single strand.

The target in data set [7] is T2, TDP-43 RRM1-2. As to the kind of experiment: NMR; single RRM1-2 bound; ITC: 15 mM phosphate pH 6.8, 25 mM KCl, 1 mM TCEP, 25 C; NMR: same buffer, 298 K (SEA-HSQC 310 K); EMSA: 20 mM HEPES pH 7.6, 25 mM KCl, 1 mM TCEP, 2 mM MgCl2, room temperature, 10 pmol DNA in 10 uL. As to conditions: protein: recombinant; tags: His6 cleaved by TEV; residual N-terminal GSH (180 aa); single strand.

The target in data set [8] is T2, TDP-43 RRM1-2. As to the kind of experiment: NMR; additional CSPs and peak broadening; ITC: 15 mM phosphate pH 6.8, 25 mM KCl, 1 mM TCEP, 25 C; NMR: same buffer, 298 K (SEA-HSQC 310 K); EMSA: 20 mM HEPES pH 7.6, 25 mM KCl, 1 mM TCEP, 2 mM MgCl2, room temperature, 10 pmol DNA in 10 uL. The conditions noted are these: protein: recombinant; tags: His6 cleaved by TEV; residual N-terminal GSH (180 aa); single strand.

The target in data set [9] is T1, TDP-43 RRM1. The data set can be described thus: ITC; ITC: 15 mM phosphate pH 6.8, 25 mM KCl, 1 mM TCEP, 25 C; NMR: same buffer, 298 K (SEA-HSQC 310 K); EMSA: 20 mM HEPES pH 7.6, 25 mM KCl, 1 mM TCEP, 2 mM MgCl2, room temperature, 10 pmol DNA in 10 uL. As to conditions: protein: recombinant; tags: His6 cleaved by TEV; chain copies: 2; single strand.
Data set [10] addresses T2, TDP-43 RRM1-2. As to the kind of experiment: ITC; Kd1, first monomer; ITC: 15 mM phosphate pH 6.8, 25 mM KCl, 1 mM TCEP, 25 C; NMR: same buffer, 298 K (SEA-HSQC 310 K); EMSA: 20 mM HEPES pH 7.6, 25 mM KCl, 1 mM TCEP, 2 mM MgCl2, room temperature, 10 pmol DNA in 10 uL. As to conditions: protein: recombinant; tags: His6 cleaved by TEV; residual N-terminal GSH (180 aa); single strand.

Sequence of TDP-43 RRM1-2 (human) (Q13148 101-277): as above
Sequence of TDP-43 RRM2 (Q13148 176-277): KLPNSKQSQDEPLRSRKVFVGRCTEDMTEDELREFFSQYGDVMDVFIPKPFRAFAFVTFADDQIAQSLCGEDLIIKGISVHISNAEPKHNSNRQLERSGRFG

For CLIP34nt (DNA), the Kd in data set [1] worked out at 270 nM.
For GTGTGTGTGTGT (ssDNA) [(GT)6], the binding signal in [2] is 0.05 Kd1/Kd2 ratio. The Kd in data set [3] turned out to be 84.4 nM; in data set [4], 68.4 nM.
Consider GUGUGUGUGUGUGUGUGUGUGUGU (ssRNA) [(GU)12], for which the binding result in data set [5] is “binds”.
As for GUGUGAAUGAAUGUGUGUGUGUGU (ssRNA) [AUG12-(GU)6], the binding result in data set [6] was “binds”.
As to GUGUGUGUGUGU (ssRNA) [(GU)6], the binding result in data set [7] is recorded as “binds”.
As to GUGUGUGUGUGUGUGUGUGUGUGUGUGUGUGUGUGUGUGUGUGUGUGU (ssRNA) [(GU)24], in [8], the binding result is on record as “binds”.
In the case of GTGTGT (ssDNA) [(GT)3], the figures for the Kd in data set [9] and in data set [4] were 929 nM and 2200 nM, respectively.
GTGTGTGTGTGTGTGTGTGTGTGT (ssDNA) [(GT)12]: the Kd in data set [3] was found to be 2300 nM; in [10], 51 nM.
